Reference: PMC5780489

Tests used:
[1] = target: PABPC1ΔLt2 (residues 1-420, 471-636) (human) (UniProt P11940)
[2] = target: poly(A)-binding protein C1 (PABPC1), full length human (human) (UniProt P11940)

Sequence of poly(A)-binding protein C1 (PABPC1), full length human (P11940 whole entry): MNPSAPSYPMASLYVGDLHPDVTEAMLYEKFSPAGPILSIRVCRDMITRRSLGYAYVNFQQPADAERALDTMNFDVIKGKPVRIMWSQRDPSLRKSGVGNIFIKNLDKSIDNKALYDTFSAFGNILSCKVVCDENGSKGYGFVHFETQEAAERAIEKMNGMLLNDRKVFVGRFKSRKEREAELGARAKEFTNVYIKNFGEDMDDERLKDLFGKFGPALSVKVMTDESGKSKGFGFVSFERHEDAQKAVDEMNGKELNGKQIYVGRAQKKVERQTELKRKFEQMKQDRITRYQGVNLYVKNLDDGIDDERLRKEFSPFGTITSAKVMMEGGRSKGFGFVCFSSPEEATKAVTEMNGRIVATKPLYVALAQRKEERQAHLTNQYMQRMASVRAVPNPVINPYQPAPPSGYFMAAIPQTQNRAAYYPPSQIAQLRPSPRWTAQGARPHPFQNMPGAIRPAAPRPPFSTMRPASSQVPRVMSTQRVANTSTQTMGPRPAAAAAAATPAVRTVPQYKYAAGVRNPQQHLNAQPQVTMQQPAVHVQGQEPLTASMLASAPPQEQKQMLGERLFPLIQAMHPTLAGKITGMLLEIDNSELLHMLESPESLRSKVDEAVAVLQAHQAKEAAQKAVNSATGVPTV

Substance | translation of capped luciferase mRNA with poly(A) in PABPC1-depleted rabbit reticulocyte lysate after adding 10 nM purified protein; fold enhancement over depleted lysate [1] [fold] | translation of capped luciferase mRNA with poly(A) in PABPC1-depleted rabbit reticulocyte lysate after adding 10 nM purified protein; fold enhancement over depleted lysate [2] [fold]
PABPC1ΔLt2 (residues 1-420, 471-636) (from UniProt P11940 1-636) (natural protein) | 1.7 | 
poly(A)-binding protein C1 (PABPC1), full length human (from UniProt P11940 1-636) (natural protein) |  | 2.5
